Results on two proteins are retold here after US6627193.

This series has as its target purified human protein C (PC), P04070.

Sequence of purified human protein C (PC), P04070 (P04070 whole entry, looked up): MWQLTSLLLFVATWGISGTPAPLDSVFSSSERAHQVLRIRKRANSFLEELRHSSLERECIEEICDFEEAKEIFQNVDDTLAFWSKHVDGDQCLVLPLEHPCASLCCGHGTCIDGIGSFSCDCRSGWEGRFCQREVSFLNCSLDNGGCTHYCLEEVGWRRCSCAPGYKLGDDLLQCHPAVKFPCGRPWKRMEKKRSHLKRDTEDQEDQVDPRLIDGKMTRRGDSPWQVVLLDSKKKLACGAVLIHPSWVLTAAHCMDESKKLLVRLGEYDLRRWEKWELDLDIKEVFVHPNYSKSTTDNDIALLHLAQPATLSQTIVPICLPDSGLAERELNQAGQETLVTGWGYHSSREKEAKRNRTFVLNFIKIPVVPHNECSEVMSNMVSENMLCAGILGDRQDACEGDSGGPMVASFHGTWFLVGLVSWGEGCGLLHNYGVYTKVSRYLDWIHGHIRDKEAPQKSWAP

B1: TLCK-inactivated RgpB (protein)
chain: YTPVEEKENGRMIVIVAKKYEGDIKDFVDWKNQRGLRTEVKVAEDIASPVTANAIQQFVKQEYEKEGNDLTYVLLVGDHKDIPAKITPGIKSDQVYGQIVGNDHYNEVFIGRFSCESKEDLKTQIDRTIHYERNITTEDKWLGQALCIASAEGGPSADNGESDIQHENVIANLLTQYGYTKIIKCYDPGVTPKNIIDAFNGGISLVNYTGHGSETAWGTSHFGTTHVKQLTNSNQLPFIFDVACVNGDFLFSMPCFAEALMRAQKDGKPTGTVAIIASTIDQYWAPPMRGQDEMNEILCEKHPNNIKRTFGGVTMNGMFAMVEKYKKDGENMLDTWTVFGDPSLLVRTLVPTEMQVTAPANISASAQTFEVACDYNGAIATLSDDGDMVGTAIVKDGKAIIKLNESIADETNLTLTVVGYNKVTVIKDVKVEGTSIADVANDKPYTVAVSGKTITVESPAAGLTIFDMNGRRVATAKNRMVFEAQNGVYAVRIATEGKTYTEKVIVK
Regarding B1, the “APC activity generated from purified PC” value is recorded as “TLCK-treated enzymes did not induce PC activation”.

B2: RgpB (50 kDa gingipain R, RGP-2) from Porphyromonas gingivalis HG66 (protein)
chain: B1 chain
B2: the “APC activity generated from purified PC (amidolytic assay with Boc-Leu-Ser-Thr-Arg-MCA)” value is “Both proteinases generated APC linearly in a dose- and incubation time-dependent manner”; the “APC activity generated in human plasma” value is given as “with RgpB negligible APC was detected”; the Km (activation of human protein C) worked out at 3.8 µM; the kcat (activation of human protein C) turned out to be 0.015 s⁻¹. Also, the kcat/Km (activation of human protein C) is 3900 M⁻¹ s⁻¹.
